According to PMC2821881:

Target: phosphorylated microtubule-associated protein (pMAP) labelled by the 12E8 antibody (chick (endogenous in primary chick neurons))
Experiment: FRET or BRET

- FRET efficiency: 41%
Substance: human cofilin-GFP (from UniProt P23528 1-166) (natural protein)
